We go through 9 sequences from the supplement of paper PMC11246515.

The data set is described as follows: total protein half-life in vivo (active degradation + dilution); higher = more stable protein.
The mark [1] stands for this setting: E. coli NCM3722 delta-clpP delta-lon delta-hslV, growth: N-lim chemostat, doubling time 6 h.
[2] abbreviates: E. coli NCM3722 delta-clpP, growth: N-lim chemostat, doubling time 6 h.
The mark [3] stands for this setting: E. coli NCM3722 delta-hslV, growth: N-lim chemostat, doubling time 6 h.
The mark [4] stands for this setting: E. coli NCM3722 delta-lon, growth: N-lim chemostat, doubling time 6 h.
The mark [5] stands for this setting: E. coli NCM3722 delta-smpB, growth: N-lim chemostat, doubling time 6 h.
The mark [6] stands for this setting: wild type E. coli NCM3722, growth: C-lim chemostat, doubling time 3 h.
Setting [7] is: wild type E. coli NCM3722, growth: C-lim chemostat, doubling time 6 h.
Where [8] appears, read: wild type E. coli NCM3722, growth: C-lim chemostat, doubling time 12 h.
Where [9] appears, read: wild type E. coli NCM3722, growth: N-lim chemostat, doubling time 6 h.
Setting [10] is: wild type E. coli NCM3722, growth: N-lim chemostat, doubling time 12 h.
Setting [11] is: wild type E. coli NCM3722, growth: P-lim chemostat, doubling time 6 h.
Where [12] appears, read: wild type E. coli NCM3722, growth: P-lim chemostat, doubling time 12 h.

± gives the standard deviation of the averaged measurements.

On to “MKSSTTIITAYFDIGRGDWTANKGFREKLARSVDVYFSYFERLAALENEMIIFTSPDLKPRVEAIRNGKPTTVIVIDIKKKFRYIRSRIEKIQKDESFTNRLEPRQLKNPEYWSPEYVLVCNLKAYFVNKAINMGLVKTPLVAWIDFGYCHKPNVTRGLKIWDFPFDESKMHLFTIKKGLTVTSQQQVFDFMIGNHVYIIGGAIVGSQHKWKEFYKLVLESQKITLNNNIVDDDQGIFVMCYYKRPDLFNLNYLGRGKWFDLFRCFRSNTLGAKMQALRIFLSRK”, for which the “total protein half-life in vivo” value was determined as 6.61 ± 0.098 h under setting [1]; 6.18 ± 0.28 h under setting [2]; 5.99 ± 0.11 h under setting [3]; 6.49 ± 0.38 h under setting [4]; 5.52 ± 0.26 h under setting [5]; 2.82 ± 0.13 h under setting [6]. For the same sequence, the “total protein half-life in vivo” value by setting is: under setting [7], 5.548 ± 0.042 h; under setting [8], 10.7 ± 0.57 h; under setting [9], 5.82 ± 0.57 h; under setting [10], 11.6 ± 0.62 h; under setting [11], 5.85 ± 0.86 h; under setting [12], 11.4 ± 0.17 h.

With “MATYYSNDFRAGLKIMLDGEPYAVEASEFVKPGKGQAFARVKLRRLLTGTRVEKTFKSTDSAEGADVVDMNLTYLYNDGEFWHFMNNETFEQLSADAKAIGDNAKWLLDQAECIVTLWNGQPISVTPPNFVELEIVDTDPGLKGDTAGTGGKPATLSTGAVVKVPLFVQIGEVIKVDTRSGEYVSRVK [P0A6N4]”, the “total protein half-life in vivo” value by setting is: under setting [2], 4.46 ± 0.85 h; under setting [3], 4.41 ± 0.21 h; under setting [4], 5.35 ± 0.54 h; under setting [5], 4.285 ± 0.022 h; under setting [6], 2.91 ± 0.13 h; under setting [7], 4.775 ± 0.023 h. Moreover, the “total protein half-life in vivo” value runs as follows: under setting [8], 8.29 ± 0.57 h; under setting [9], 4.24 ± 0.074 h; under setting [10], 5.76 ± 0.19 h; under setting [11], 4.32 ± 0.1 h; under setting [12], 8.07 ± 0.47 h.

As for “MHYMKWIYPRRLRNQMILMAILMVIVPTLTIGYIVETEGRSAVLSEKEKKLSAVVNLLNQALGDRYDLYIDLPREERIRALNAELAPITENITHAFPGIGAGYYNKMLDAIITYAPSALYQNNVGVTIAADHPGREVMRTNTPLVYSGRQVRGDILNSMLPIERNGEILGYIWANELTEDIRRQAWKMDVRIIIVLTAGLLISLLLIVLFSRRLSANIDIITDGLSTLAQNIPTRLPQLPGEMGQISQSVNNLAQALRETRTLNDLIIENAADGVIAIDRQGDVTTMNPAAEVITGYQRHELVGQPYSMLFDNTQFYSPVLDTLEHGTEHVALEISFPGRDRTIELSVTTSRIHNTHGEMIGALVIFSDLTARKETQRRMAQAERLATLGELMAGVAHEVRNPLTAIRGYVQILRQQTSDPIHQEYLSVVLKEIDSINKVIQQLLEFSRPRHSQWQQVSLNALVEETLVLVQTAGVQARVDFISELDNELSPINADRELLKQVLLNILINAVQAISARGKIRIQTWQYSDSQQAISIEDNGCGIDLSLQKKIFDPFFTTKASGTGLGLALSQRIINAHQGDIRVASLPGYGATFTLILPINPQGNQTV”, the “total protein half-life in vivo” value under setting [1] was 6.89 h, the “total protein half-life in vivo” value under setting [6] amounted to 3.09 ± 0.28 h and the “total protein half-life in vivo” value under setting [7] was found to be 6.53 h.

For “MKYKHLILSLSLIMLGPLAHAEEIGSVDTVFKMIGPDHKIVVEAFDDPDVKNVTCYVSRAKTGGIKGGLGLAEDTSDAAISCQQVGPIELSDRIKNGKAQGEVVFKKRTSLVFKSLQVVRFYDAKRNALAYLAYSDKVVEGSPKNAISAVPVMPWRQ [P0AE91]”, the “total protein half-life in vivo” value runs as follows: under setting [1], 5.76 ± 0.34 h; under setting [3], 6.57 ± 0.31 h; under setting [5], 6.01 ± 0.23 h; under setting [6], 2.92 ± 0.29 h; under setting [7], 5.9682 ± 0.0034 h; under setting [8], 12.1 ± 2.7 h. In addition, the “total protein half-life in vivo” value is, setting by setting: under setting [9], 6.39 ± 1.3 h; under setting [10], 13.3 ± 0.76 h; under setting [11], 6.41 ± 0.56 h.

Consider “MAGLPNSSNALQQWHHLFEAEGTKRSPQAQQHLQQLLRTGLPTRKHENWKYTPLEGLINSQFVSIAGEISPQQRDALALTLDSVRLVFVDGRYVPALSDATEGSGYEVSINDDRQGLPDAIQAEVFLHLTESLAQSVTHIAVKRGQRPAKPLLLMHITQGVAGEEVNTAHYRHHLDLAEGAEATVIEHFVSLNDARHFTGARFTINVAANAHLQHIKLAFENPLSHHFAHNDLLLAEDATAFSHSFLLGGAVLRHNTSTQLNGENSTLRINSLAMPVKNEVCDTRTWLEHNKGFCNSRQLHKTIVSDKGRAVFNGLINVAQHAIKTDGQMTNNNLLMGKLAEVDTKPQLEIYADDVKCSHGATVGRIDDEQIFYLRSRGINQQDAQQMIIYAFAAELTEALRDEGLKQQVLARIGQRLPGGAR”, for which the “total protein half-life in vivo” value under setting [1] amounted to 4.76 ± 0.4 h; the “total protein half-life in vivo” value under setting [2] came out at 3.22 ± 0.11 h; the “total protein half-life in vivo” value under setting [3] is 2.1 ± 0.063 h; the “total protein half-life in vivo” value under setting [4] turned out to be 3.45 ± 1.1 h; the “total protein half-life in vivo” value under setting [5] is 1.99 ± 0.24 h; the “total protein half-life in vivo” value under setting [6] was 2.2 ± 0.22 h. Further, the “total protein half-life in vivo” value is, setting by setting: under setting [7], 3.91 ± 0.52 h; under setting [8], 5.81 ± 0.08 h; under setting [9], 2.37 ± 0.38 h; under setting [10], 2.817 ± 0.0043 h; under setting [11], 3.2 ± 0.23 h; under setting [12], 6.04 ± 0.41 h.

On to “MKNKLPPFIEIYRALIATPSISATEEALDQSNADLITLLADWFKDLGFNVEVQPVPGTRNKFNMLASIGQGAGGLLLAGHTDTVPFDDGRWTRDPFTLTEHDGKLYGLGTADMKGFFAFILDALRDVDVTKLKKPLYILATADEETSMAGARYFAETTALRPDCAIIGEPTSLQPVRAHKGHISNAIRIQGQSGHSSDPARGVNAIELMHDAIGHILQLRDNLKERYHYEAFTVPYPTLNLGHIHGGDASNRICACCELHMDIRPLPGMTLNELNGLLNDALAPVSERWPGRLTVDELHPPIPGYECPPNHQLVEVVEKLLGAKTEVVNYCTEAPFIQTLCPTLVLGPGSINQAHQPDEYLETRFIKPTRELITQVIHHFCWH”, for which the “total protein half-life in vivo” value reads like this: under setting [1], 4.97 ± 0.62 h; under setting [2], 4.73 ± 0.34 h; under setting [3], 4.636 ± 0.017 h; under setting [4], 4.68 ± 0.19 h; under setting [5], 4.29 ± 0.23 h; under setting [6], 3.27 ± 0.46 h. In addition, the “total protein half-life in vivo” value stood at 5.46 ± 0.24 h under setting [7]; 10.9 ± 2.2 h under setting [8]; 4.68 ± 0.058 h under setting [9]; 7.38 ± 0.21 h under setting [10]; 5.95 ± 0.067 h under setting [11]; 11 ± 0.37 h under setting [12].

As for “MSMSHINYNHLYYFWHVYKEGSVVGAAEALYLTPQTITGQIRALEERLQGKLFKRKGRGLEPSELGELVYRYADKMFTLSQEMLDIVNYRKESNLLFDVGVADALSKRLVSSVLNAAVVEGEPIHLRCFESTHEMLLEQLSQHKLDMIISDCPIDSTQQEGLFSVRIGECGVSFWCTNPPPEKPFPACLEERRLLIPGRRSMLGRKLLNWFNSQGLNVEILGEFDDAALMKAFGAMHNAIFVAPTLYAYDFYADKTVVEIGRVENVMEEYHAIFAERMIQHPAVQRICNTDYSALFSPAVR [P0A9G2]”, the “total protein half-life in vivo” value is 6.03 ± 0.4 h under setting [1]; 6.18 h under setting [2]; 4.38 h under setting [3]; 5.99 ± 1.4 h under setting [4]; 5.21 ± 0.34 h under setting [5]; 5.51 h under setting [7]. Also, the “total protein half-life in vivo” value under setting [8] amounted to 9.31 h, the “total protein half-life in vivo” value under setting [9] amounted to 5.76 ± 1.2 h, the “total protein half-life in vivo” value under setting [11] is 4.93 ± 1.5 h and the “total protein half-life in vivo” value under setting [12] was found to be 10.2 h.

Consider “MIKFSATLLATLIAASVNAATVDLRIMETTDLHSNMMDFDYYKDTATEKFGLVRTASLINDARNEVKNSVLVDNGDLIQGSPLADYMSAKGLKAGDIHPVYKALNTLDYTVGTLGNHEFNYGLDYLKNALAGAKFPYVNANVIDARTKQPMFTPYLIKDTEVVDKDGKKQTLKIGYIGVVPPQIMGWDKANLSGKVTVNDITETVRKYVPEMREKGADVVVVLAHSGLSADPYKVMAENSVYYLSEIPGVNAIMFGHAHAVFPGKDFADIEGADIAKGTLNGVPAVMPGMWGDHLGVVDLQLSNDSGKWQVTQAKAEARPIYDIANKKSLAAEDSKLVETLKADHDATRQFVSKPIGKSADNMYSYLALVQDDPTVQVVNNAQKAYVEHYIQGDPDLAKLPVLSAAAPFKVGGRKNDPASYVEVEKGQLTFRNAADLYLYPNTLIVVKASGKEVKEWLECSAGQFNQIDPNSTKPQSLINWDGFRTYNFDVIDGVNYQIDVTQPARYDGECQMINANAERIKNLTFNGKPIDPNAMFLVATNNYRAYGGKFAGTGDSHIAFASPDENRSVLAAWIADESKRAGEIHPAADNNWRLAPIAGDKKLDIRFETSPSDKAAAFIKEKGQYPMNKVATDDIGFAIYQVDLSK”, for which the “total protein half-life in vivo” value under setting [1] worked out at 6.84 ± 0.98 h; the “total protein half-life in vivo” value under setting [2] amounted to 6.56 ± 1.5 h; the “total protein half-life in vivo” value under setting [3] stood at 6.23 ± 0.19 h; the “total protein half-life in vivo” value under setting [4] worked out at 7.14 ± 0.34 h; the “total protein half-life in vivo” value under setting [5] is 5.91 ± 0.18 h; the “total protein half-life in vivo” value under setting [6] stood at 3.34 ± 0.07 h. The “total protein half-life in vivo” value under setting [7] was found to be 5.93 ± 0.14 h; the “total protein half-life in vivo” value under setting [8] is 12.9 ± 2.1 h; the “total protein half-life in vivo” value under setting [9] is 6.327 ± 0.037 h; the “total protein half-life in vivo” value under setting [10] is 12.2 ± 1.1 h; the “total protein half-life in vivo” value under setting [11] came to 5.23 ± 0.31 h; the “total protein half-life in vivo” value under setting [12] stood at 11.212 ± 0.0065 h.

Turning to “MTTILKHLPVGQRIGIAFSGGLDTSAALLWMRQKGAVPYAYTANLGQPDEEDYDAIPRRAMEYGAENARLIDCRKQLVAEGIAAIQCGAFHNTTGGLTYFNTTPLGRAVTGTMLVAAMKEDGVNIWGDGSTYKGNDIERFYRYGLLTNAELQIYKPWLDTDFIDELGGRHEMSEFMIACGFDYKMSVEKAYSTDSNMLGATHEAKDLEYLNSSVKIVNPIMGVKFWDESVKIPAEEVTVRFEQGHPVALNGKTFSDDVEMMLEANRIGGRHGLGMSDQIENRIIEAKSRGIYEAPGMALLHIAYERLLTGIHNEDTIEQYHAHGRQLGRLLYQGRWFDSQALMLRDSLQRWVASQITGEVTLELRRGNDYSILNTVSENLTYKPERLTMEKGDSVFSPDDRIGQLTMRNLDITDTREKLFGYAKTGLLSSSAASGVPQVENLENKGQ [P0A6E4]”, the “total protein half-life in vivo” value under setting [1] was 4.11 ± 0.6 h; the “total protein half-life in vivo” value under setting [2] stood at 3.3 ± 0.15 h; the “total protein half-life in vivo” value under setting [3] came out at 3.2 ± 0.23 h; the “total protein half-life in vivo” value under setting [4] stood at 3.89 ± 0.34 h; the “total protein half-life in vivo” value under setting [5] stood at 3.26 ± 0.15 h; the “total protein half-life in vivo” value under setting [6] turned out to be 3.17 ± 0.06 h. The “total protein half-life in vivo” value is, setting by setting: under setting [7], 5.27 ± 0.081 h; under setting [8], 9.91 ± 0.69 h; under setting [9], 3.39 ± 0.12 h; under setting [10], 4.82 ± 0.071 h; under setting [11], 5.69 ± 0.15 h; under setting [12], 10.7 ± 0.7 h.
